Measured values: patent publication US20040191883A1 (ULTIZYME INTERNATIONAL, published 2004)

Target: the molecule itself
Experiment: SDS-PAGE without mercaptoethanol, subunit-subunit disulfide-linked homodimer

B1: modified water-soluble PQQGDH Ser415Cys (Acinetobacter calcoaceticus) (enzyme)
chain: DVPLTPSQFAKAKSENFDKKVILSNLNKPHALLWGPDNQIWLTERATGKILRVNPESGSVKTVFQVPEIVNDADGQNGLLGFAFHPDFKNNPYIYISGTFKNPKSTDKELPNQTIIRRYTYNKSTDTLEKPVDLLAGLPSSKDHQSGRLVIGPDQKIYYTIGDQGRNQLAYLFLPNQAQHTPTQQELNGKDYHTYMGKVLRLNLDGSIPKDNPSFNGVVSHIYTLGHRNPQGLAFTPNGKLLQSEQGPNSDDEINLIVKGGNYGWPNVAGYKDDSGYAYANYSAAANKSIKDLAQNGVKVAAGVPVTKESEWTGKNFVPPLKTLYTVQDTYNYNDPTCGEMTYICWPTVAPSSAYVYKGGKKAITGWENTLLVPSLKRGVIFRIKLDPTYCTTYDDAVPMFKSNNRYRDVIASPDGNVLYVLTDTAGNVQKDDGSVTNTLENPGSLIKFTYKAK
modifications: Cys415 of each subunit joined in an inter-subunit disulfide bond
notes: also called modified enzyme Ser415Cys; Ser4l5Cys
B1: binds.
